This is an account of results in article PMC7889167 (mAbs, 2021).

The assay has as its target biotinylated hIL-21 R (human, UniProt Q9HBE5, biotin (site not stated)). The assay is described as follows: AlphaScreen or HTRF. A general note: In Alpha technology, singlet oxygen from a donor bead excites a nearby acceptor bead.

Sequence of biotinylated hIL-21 R (Q9HBE5 20-232): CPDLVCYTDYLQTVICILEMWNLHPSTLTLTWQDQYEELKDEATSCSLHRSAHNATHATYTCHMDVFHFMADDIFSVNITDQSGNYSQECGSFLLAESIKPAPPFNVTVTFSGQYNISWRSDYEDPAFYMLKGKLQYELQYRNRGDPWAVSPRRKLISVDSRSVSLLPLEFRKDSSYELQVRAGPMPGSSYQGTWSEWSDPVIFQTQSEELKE

B1: europium cryptate-labeled MJ4-2 (antibody, V domains shown)
VH: EVQLVESGGGLVQPGRSLRLSCAASGVTFSDYHMAWVRQAPKKGLEWVATIIYDAARTYYRDSVKGRFTISRDNAKNSLYLQMNSLRAEDTAVYYCATWQTTGTPGWFAYWGQGTLVTVSS
VL: DIQMTQSPSSLSASVGDRVTITCGASQSVSISRFNLMHWYQQKPGHQPKLLIYRASNLASGVPSRFSGSGSGTDFTLTINPLQAEDFATYYCQQSRESPPTFGGGTKVEIK
B1: the binding result was “binds”.
